Results on 6 molecules are retold here after US20250136718A1 (MABWELL THERAPEUTICS, published 2025).

Where two headings read alike, the source gives them in different places.

Experiment [1] deals with T1, cynomolgus monkey TMPRSS6 expressed on HEK293T cells, CynoTMPRSS6-(His)6.
T1 chain: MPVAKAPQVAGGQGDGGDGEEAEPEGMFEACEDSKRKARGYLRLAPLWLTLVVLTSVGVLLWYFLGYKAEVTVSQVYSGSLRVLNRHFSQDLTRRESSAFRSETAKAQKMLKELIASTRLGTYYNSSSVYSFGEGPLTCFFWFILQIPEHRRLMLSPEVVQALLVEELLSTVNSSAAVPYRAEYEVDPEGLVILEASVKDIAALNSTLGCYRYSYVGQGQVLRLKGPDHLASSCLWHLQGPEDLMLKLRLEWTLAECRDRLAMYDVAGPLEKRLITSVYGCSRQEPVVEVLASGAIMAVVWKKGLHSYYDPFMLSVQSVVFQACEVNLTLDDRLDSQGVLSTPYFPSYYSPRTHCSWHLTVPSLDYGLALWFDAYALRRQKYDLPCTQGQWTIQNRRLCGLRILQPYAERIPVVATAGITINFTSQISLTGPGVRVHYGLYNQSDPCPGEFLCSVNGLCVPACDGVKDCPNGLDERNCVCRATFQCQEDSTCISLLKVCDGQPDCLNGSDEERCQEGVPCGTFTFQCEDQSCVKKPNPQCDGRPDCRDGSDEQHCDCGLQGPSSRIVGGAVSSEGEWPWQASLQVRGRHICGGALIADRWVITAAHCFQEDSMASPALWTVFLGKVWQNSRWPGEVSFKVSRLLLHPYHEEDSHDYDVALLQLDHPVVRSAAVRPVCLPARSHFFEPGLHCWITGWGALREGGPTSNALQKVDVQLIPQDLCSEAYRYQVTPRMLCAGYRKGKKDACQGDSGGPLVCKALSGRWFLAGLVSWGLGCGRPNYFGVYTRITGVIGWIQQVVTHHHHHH
The experiment is described as follows: cell surface ELISA.

The target in experiment [2] is T2, human TMPRSS6 (matriptase-2) expressed on HEK293T cells, huTMPRSS6-(His)6 (UniProt Q8IU80 10-811).
T2 chain: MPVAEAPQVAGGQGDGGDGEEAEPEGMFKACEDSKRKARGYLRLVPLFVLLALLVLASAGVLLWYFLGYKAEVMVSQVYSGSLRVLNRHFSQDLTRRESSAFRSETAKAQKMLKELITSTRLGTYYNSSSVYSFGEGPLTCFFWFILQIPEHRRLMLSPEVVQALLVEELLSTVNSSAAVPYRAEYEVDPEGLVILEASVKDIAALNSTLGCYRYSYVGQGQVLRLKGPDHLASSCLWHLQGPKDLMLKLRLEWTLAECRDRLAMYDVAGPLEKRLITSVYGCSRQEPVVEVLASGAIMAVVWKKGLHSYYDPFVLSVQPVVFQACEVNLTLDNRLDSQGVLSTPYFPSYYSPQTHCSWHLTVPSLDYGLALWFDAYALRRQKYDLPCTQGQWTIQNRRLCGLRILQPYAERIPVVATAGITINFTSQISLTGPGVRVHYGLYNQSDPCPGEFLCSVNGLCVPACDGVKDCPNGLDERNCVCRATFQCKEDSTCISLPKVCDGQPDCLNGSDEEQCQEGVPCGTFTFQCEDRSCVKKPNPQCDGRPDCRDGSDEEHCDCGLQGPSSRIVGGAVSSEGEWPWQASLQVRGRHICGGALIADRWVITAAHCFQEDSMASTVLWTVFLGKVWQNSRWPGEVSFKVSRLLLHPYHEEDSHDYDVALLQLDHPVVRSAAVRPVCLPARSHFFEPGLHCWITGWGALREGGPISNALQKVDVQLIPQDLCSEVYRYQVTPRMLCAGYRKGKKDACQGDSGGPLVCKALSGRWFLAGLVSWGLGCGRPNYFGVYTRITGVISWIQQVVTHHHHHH
The experiment is described as follows: cell surface ELISA. (In general: An ELISA detects its analyte on a solid surface through an enzyme-linked reagent.)

Experiment [3] deals with T3, cynomolgus monkey TMPRSS6 expressed on HEK293T cells, CynoTMPRSS6-(His)6 (cynomolgus monkey, UniProt Q8IU80 10-811 (human entry)).
T3 chain: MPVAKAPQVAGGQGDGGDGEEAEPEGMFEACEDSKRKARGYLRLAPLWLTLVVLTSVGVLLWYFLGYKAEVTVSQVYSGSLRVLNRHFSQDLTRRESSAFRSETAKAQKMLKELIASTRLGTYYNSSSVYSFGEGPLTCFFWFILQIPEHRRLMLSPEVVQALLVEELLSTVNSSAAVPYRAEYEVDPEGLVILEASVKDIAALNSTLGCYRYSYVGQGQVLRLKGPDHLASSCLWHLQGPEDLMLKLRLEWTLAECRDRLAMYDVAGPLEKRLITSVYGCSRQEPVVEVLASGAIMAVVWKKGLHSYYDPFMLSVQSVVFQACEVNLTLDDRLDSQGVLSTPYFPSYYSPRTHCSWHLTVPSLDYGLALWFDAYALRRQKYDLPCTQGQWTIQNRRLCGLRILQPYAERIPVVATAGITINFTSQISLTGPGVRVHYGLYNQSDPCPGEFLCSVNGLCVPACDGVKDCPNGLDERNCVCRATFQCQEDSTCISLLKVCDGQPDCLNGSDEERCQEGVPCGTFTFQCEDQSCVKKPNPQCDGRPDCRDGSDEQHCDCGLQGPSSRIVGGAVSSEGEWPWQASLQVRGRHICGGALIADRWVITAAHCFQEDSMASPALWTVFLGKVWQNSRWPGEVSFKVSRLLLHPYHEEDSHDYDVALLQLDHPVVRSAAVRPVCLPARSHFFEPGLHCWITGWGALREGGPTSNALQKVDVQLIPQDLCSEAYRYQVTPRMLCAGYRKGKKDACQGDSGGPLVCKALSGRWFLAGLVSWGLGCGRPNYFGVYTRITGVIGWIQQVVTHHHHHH
The experiment is described as follows: summary of Example 4 (FACS, cell surface ELISA). The procedure: Selected anti-TMPRSS6 antibodies were tested to determine whether any are capable of binding to TMPRSS6 from mouse and/or cynomolgus monkey. HEK293T cells stably expressing human TMPRSS6 (HuTMPRSS6-(His)₆) (generated by LakePharma Inc as described above), HEK293T cells stably expressing mouse TMPRSS6 (MoTMPRSS6-(His)₆) (SEQ ID NO: 98) (generated by LakePharma Inc as described above) and HEK293T cells transiently expressing cynomolgus monkey TMPRSS6 (CynoTMPRSS6-(His)₆) (SEQ ID NO: 99) (generated in house) were collected. HEK293T cells stably expressing human TMPRSS6 were used as a positive control and HEK293T cells were used as a negative control (as described above). Cells were blocked with dPBS+3% BSA before incubation with anti-TMPRSS6 antibodies diluted in dPBS+3% BSA. After incubation, cells were washed with dPBS and followed by another incubation with goat anti-mouse IgG conjugated with AlexaFluor-488 as a 2° antibody (Invitrogen). At last, cells were washed with dPBS to remove unbound antibody, re-suspended with dPBS+1 mM EDTA, and then subjected to FACS analysis using a NOVOCYTE® Flow Cytometer (ACEA Biosciences, Inc., San Diego CA). Bound antibody was determined by excitation at 488 nm and measurement of emission (FITC-A) at 530 nm. Results for these assays are shown in histogram plots in FIGS. 4A-4I.
HEK293T cells stably expressing mouse TMPRSS6 (generated by LakePharma Inc as described above, FIGS. 4J, 4L, 4N, 4P, 4R, 4T) or cynomolgus monkey (generated in house as described above, FIGS. 4K, 4M, 4O, 4Q, 4S, 4U) were fixed with methanol (100%), and washed with dPBS (Dulbecco's phosphate-buffered saline, Corning Cellgro) before incubation with various concentrations of anti-TMPRSS6 antibodies and their humanized variants diluted in BSA medium (DMEM+1% Pen/Strep+10 mM HEPES+1 mg/ml BSA (Sigma-Aldrich)). Purified mouse IgG (FIGS. 4J-4O) or Human IgG1 (FIGS. 4P-4U) was used as a control.

For experiment [4], the target named is T1, cynomolgus monkey TMPRSS6 expressed on …. In words: cell surface ELISA.

B1: humanized anti-TMPRSS6 antibody variant hzMWTx-003 Var (antibody, human IgG1, kappa, L234A L235A, V domains shown)
VH: QVQLVQSGAEVKKPGASVKVSCKASGFNIEDYYMHWVRQAPGQRLEWMGRIDPEDAETTYSPKFQGRVTIIPDTSANTAYMELSSLRSEDTAVYYCARSIYLDPMDYWGQGTLVTVSS
VL: DIQMTQSPKSLSASVGDRVTITCRASQDVTTALAWYQQKPGQSPKLLIYWATTRHSGVPSRFSGSGSGTDFTLTISSLQPEDFATYYCQQHYSTPYTFGQGTKLEIKR
notes: Human IgG1 / kappa
The molecule B1 registered a half-maximal effective concentration (EC50) in experiment [1] of 0.03 µg/mL.

B2: MWTx-001 anti-TMPRSS6 monoclonal antibody (antibody, mouse IgG2a, kappa, V domains shown)
VH: QVQLQQPGAELAKPGASVKMSCKASGYTFTSYWITWVKQRPGQDLEWIGNIYPGSGSTYYNEKFKSKATLTVDTSSRTAYMQLSSLTSADSAVYYCAPYDSDYAMDYWGQGTSVTVSS
VL: DIKMTQSPSSMYASLGERVTITCKASQDINNYLSWFQQKPGKSPKTLIYRANRLVDGVPSRVSGSGSGQDYSLTISSLEYEDVGIYFCLQYDEFPLTFGAGTKLELKR
notes: Mouse monoclonal antibody from hybridoma (ATCC PTA-126759)
As for B2, the figures for the concentration giving a half-maximal response (EC50) in experiment [2] and in experiment [4] were 0.2 µg/mL and 0.1 µg/mL, respectively. For the same molecule, the binding result in experiment [3] is “binds”.

B3: MWTx-002 anti-TMPRSS6 monoclonal antibody (antibody, mouse IgG2b, kappa, V domains shown)
VH: EVQLQQSGAELVKPGASVKLSCTASGFNIKDYYIHWVKERTEQGLEWFGRIDPEDGESEYAPKFQGKATLTADTSSNTAYLQLSSLTSEDTAVYYCTRGDSMMVTYFDYWGQGTTLTVSS
VL: DIVMTQSHKFMSTSVGDRVSITCKASQDVSTAVAWYQQKPGQSPKLLIYWAFTRHTGVPDRFTSTGSGTDYALTISSVQAEDLALYYCQQHYRSPWTFGGGTKLEIKR
notes: Mouse monoclonal antibody from hybridoma (ATCC PTA-126760)
For the molecule B3, the EC50 in experiment [2] was found to be 0.04 µg/mL; in experiment [4] it was 0.06 µg/mL. For the same molecule, the binding result in experiment [3] was “binds”.

B4: humanized anti-TMPRSS6 antibody variant hzMWTx-001 Var (antibody, human IgG1, kappa, N297A, V domains shown)
VH: EVQLVQSGAEVKKPGASVKVSCKASGYTFTSYWITWVRQAPGQRLEWIGNIYPGSGSTYYNEKFKSKATITRDTSSRTAYMELSSLRSEDTAVYYCAPYDADYAMDYWGQGTLVTVSS
VL: DIQMTQSPSSLSASVGDRVTITCKASQDISNYLSWFQQKPGKAPKLLIYRANRLVEGVPSRFSGSGSGTDFTLTISSLQPEDFATYFCLQYDEFPLTFGGGTKVEIKR
notes: Human IgG1 / kappa
The molecule B4 came in with an EC50 in experiment [1] of 0.003 µg/mL.

B5: MWTx-003 anti-TMPRSS6 monoclonal antibody (antibody, mouse IgG2b, kappa, V domains shown)
VH: EVQLQQSGAELVKPGASVKLSCTASGFNIEDYYIHWVKERTEQGLEWIGRIDPEDGETTYAPQFQGKATIIPDTSSNTAYMQLSSLTSEDAAVYYCARSIYLDPMDYWGQGTSVTVSS
VL: DIVMTQSHKFMSTSVGDRVSITCKASQDVTTAVAWYQQKPGQSPKILIYWATTRHTGVPDRFTGSISGTTYILTISSVQAEDLALYYCQQHYSTPYTFGGGTKLEIKR
notes: Mouse monoclonal antibody from hybridoma (ATCC PTA-126761); The recombinant version r4K12B has the same HC and LC; also called r4K12B; recombinant MWTx-003
Take B5: the EC50 in experiment [2] is 0.05 µg/mL; in experiment [4], 0.09 µg/mL. The binding result in experiment [3] is “binds”.

B6: humanized anti-TMPRSS6 antibody variant hzMWTx-002 Var (antibody, human IgG1, kappa, N297A, V domains shown)
VH: EVQLVQSGAEVKKPGASVKVSCKASGFNIKDYYIHWVRQATGQGLEWMGRIDPEDAESEYAPKFQGRVTITADTSTDTAYMELSSLRSEDTAVYYCTRGDSMMVTYFDYWGQGTLVTVSS
VL: DIQMTQSPSSLSASVGDRVTITCKASQDVSTAVAWYQQKPGKAPKLLIYWAFTRHTGVPSRFSGSGSGTDYALTISSLQPEDFATYYCQQHYRSPWTFGGGTKVEIKR
notes: Human IgG1 / kappa
Molecule B6 gave a concentration for a half-maximal effect (EC50) in experiment [1] of 0.06 µg/mL.

One may read the EC50 as the concentration giving half of the maximal effect.
